Results taken from the supplement of paper PMC10567573.

B1: NEK8 (parent)
chain: VTIKHVACGDFFTACLTDRGIIMT

Variants of: B1
Assay: protein stability index of a GFP-peptide fusion (GPS, HEK-293T) (PSI 1-6); higher = more stable
Conditions: c terminus: a fixed tail appended
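Also: lentivirally expressed fusions sorted by FACS into six bins by GFP to DsRed ratio, PSI derived from sequencing read proportions per bin multiplied by bin number.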

Variant	protein stability index
VTIKHVACGDFFTVCLTDRGIIMT [A14V]	2.55
VTIKHVACGDFFTMCLTDRGIIMT [A14M]	3.53
VTIKHVACGDFFTTCLTDRGIIMT [A14T]	3.17
VTIKHVACGDFFTCCLTDRGIIMT [A14C]	2.65
VTIKHVACGDFFTECLTDRGIIMT [A14E]	1.47
VTIKHVACGDFFTHCLTDRGIIMT [A14H]	1.86
VTIKHVACGDFFTWCLTDRGIIMT [A14W]	2.01
VTIKHVACGDFFTDCLTDRGIIMT [A14D]	1.98
VTIKHVACGDFFTICLTDRGIIMT [A14I]	2.87
VTIKHVACGDFFTKCLTDRGIIMT [A14K]	1.9
VTIKHVACGDFFTLCLTDRGIIMT [A14L]	2.31
VTIKHVACGDFFTQCLTDRGIIMT [A14Q]	1.12
VTIKHVACGDFFTPCLTDRGIIMT [A14P]	2.68
VTIKHVACGDFFTGCLTDRGIIMT [A14G]	2.51
VTIKHVACGDFFTYCLTDRGIIMT [A14Y]	2.65
VTIKHVACGDFFTRCLTDRGIIMT [A14R]	2.34
VTIKHVACGDFFTACDTDRGIIMT [L16D]	1.91
VTIKHVACGDFFTACCTDRGIIMT [L16C]	2.43
VTIKHVACGDFFTACMTDRGIIMT [L16M]	2.15
VTIKHVACGDFFTACFTDRGIIMT [L16F]	3.61
VTIKHVACGDFFTACYTDRGIIMT [L16Y]	2.13
VTIKHVACGDFFTACTTDRGIIMT [L16T]	1.76
VTIKHVACGDFFTACITDRGIIMT [L16I]	2.3
VTIKHVACGDFFTACKTDRGIIMT [L16K]	3.12

Variant	protein stability index
VTIKHVACGDFFTACETDRGIIMT [L16E]	1.89
VTIKHVACGDFFTACHTDRGIIMT [L16H]	2.88
VTIKHVACGDFFTACSTDRGIIMT [L16S]	3.85
VTIKHVACGDFFTACRTDRGIIMT [L16R]	2.33
VTIKHVACGDFFTACATDRGIIMT [L16A]	4.14
VTIKHVACGDFFTACQTDRGIIMT [L16Q]	3.06
VTIKHVACGDFFTACPTDRGIIMT [L16P]	2.59
VTIKHVACGDFFTAQLTDRGIIMT [C15Q]	2.59
VTIKHVACGDFFTASLTDRGIIMT [C15S]	3.9
VTIKHVACGDFFTATLTDRGIIMT [C15T]	3.74
VTIKHVACGDFFTAWLTDRGIIMT [C15W]	3.09
VTIKHVACGDFFTARLTDRGIIMT [C15R]	2.91
VTIKHVACGDFFTANLTDRGIIMT [C15N]	4.23
VTIKHVACGDFFTAVLTDRGIIMT [C15V]	2.5
VTIKHVACGDFFTAHLTDRGIIMT [C15H]	1.61
VTIKHVACGDFFTAFLTDRGIIMT [C15F]	3.35
VTIKHVACGDFFTALLTDRGIIMT [C15L]	2.37
VTIKHVACGDFFTAILTDRGIIMT [C15I]	3.26
VTIKHVACGDFFTAKLTDRGIIMT [C15K]	2.58
VTIKHVACGDFFTAMLTDRGIIMT [C15M]	4.25
VTIKHVACGDFFTAYLTDRGIIMT [C15Y]	2.42
VTIKHVACGDFFTADLTDRGIIMT [C15D]	3.14
VTIKHVACGDFFTAELTDRGIIMT [C15E]	3.04
VTIKHVACGDFFTACLTDIGIIMT [R19I]	2.96

Variant	protein stability index
VTIKHVACGDFFTACLTDKGIIMT [R19K]	3.78
VTIKHVACGDFFTACLTDHGIIMT [R19H]	1.81
VTIKHVACGDFFTACLTDGGIIMT [R19G]	3.25
VTIKHVACGDFFTACLTDPGIIMT [R19P]	4.49
VTIKHVACGDFFTACLTDMGIIMT [R19M]	2.32
VTIKHVACGDFFTACLTDYGIIMT [R19Y]	2.32
VTIKHVACGDFFTACLTDCGIIMT [R19C]	2.48
VTIKHVACGDFFTACLTDTGIIMT [R19T]	2.77
VTIKHVACGDFFTACLTDQGIIMT [R19Q]	1.92
VTIKHVACGDFFTACLTDDGIIMT [R19D]	3.29
VTIKHVACGDFFTACLTDAGIIMT [R19A]	2.01
VTIKHVACGDFFTACLTDVGIIMT [R19V]	2.56
VTIKHVACGDFFTACLTDSGIIMT [R19S]	2.97
VTIKHVACGDFFTACLTDEGIIMT [R19E]	3.52
VTIKHVACGDFFTACLTDNGIIMT [R19N]	3.56
VTIKHVACGDFFTACLTDWGIIMT [R19W]	3.11
VTIKHVACGDFFTACLTARGIIMT [D18A]	4.82
VTIKHVACGDFFTACLTYRGIIMT [D18Y]	3.05
VTIKHVACGDFFTACLTGRGIIMT [D18G]	3.08
VTIKHVACGDFFTACLTVRGIIMT [D18V]	3.85
VTIKHVACGDFFTACLTRRGIIMT [D18R]	5.42
VTIKHVACGDFFTACLTCRGIIMT [D18C]	2.02
VTIKHVACGDFFTACLTKRGIIMT [D18K]	4.11
VTIKHVACGDFFTACLTNRGIIMT [D18N]	3.07

Variant	protein stability index
VTIKHVACGDFFTACLTPRGIIMT [D18P]	3.31
VTIKHVACGDFFTACLTTRGIIMT [D18T]	2.72
VTIKHVACGDFFTACLTWRGIIMT [D18W]	3.08
VTIKHVACGDFFTACLTFRGIIMT [D18F]	4.13
VTIKHVACGDFFTACLTSRGIIMT [D18S]	4.67
VTIKHVACGDFFTACLTLRGIIMT [D18L]	2.09
VTIKHVACGDFFTACLTDRAIIMT [G20A]	3.45
VTIKHVACGDFFTACLLDRGIIMT [T17L]	3.17
VTIKHVACGDFFTACLPDRGIIMT [T17P]	2.64
VTIKHVACGDFFTACLSDRGIIMT [T17S]	3.16
VTIKHVACGDFFTACLMDRGIIMT [T17M]	3.48
VTIKHVACGDFFTACLIDRGIIMT [T17I]	4.6
VTIKHVACGDFFTACLNDRGIIMT [T17N]	4.51
VTIKHVACGDFFTACLFDRGIIMT [T17F]	3.49
VTIKHVACGDFFTACLGDRGIIMT [T17G]	1.94
VTIKHVACGDFFTACLQDRGIIMT [T17Q]	3.69
VTIKHVACGDFFTACLVDRGIIMT [T17V]	3.2
VTIKHVACGDFFTACLDDRGIIMT [T17D]	2.27
VTIKHVACGDFFTACLHDRGIIMT [T17H]	3.72
VTIKHVACGDFFTACLRDRGIIMT [T17R]	3.53
VTIKHVACGDFFTACLCDRGIIMT [T17C]	2.27
VTIKHVACGDFFTACLKDRGIIMT [T17K]	4.32
